Laboratory results published in patent publication US20240002818.

Tested on: T1, Myotis lucifugus helper (Myotis lucifugus)
T1 sequence: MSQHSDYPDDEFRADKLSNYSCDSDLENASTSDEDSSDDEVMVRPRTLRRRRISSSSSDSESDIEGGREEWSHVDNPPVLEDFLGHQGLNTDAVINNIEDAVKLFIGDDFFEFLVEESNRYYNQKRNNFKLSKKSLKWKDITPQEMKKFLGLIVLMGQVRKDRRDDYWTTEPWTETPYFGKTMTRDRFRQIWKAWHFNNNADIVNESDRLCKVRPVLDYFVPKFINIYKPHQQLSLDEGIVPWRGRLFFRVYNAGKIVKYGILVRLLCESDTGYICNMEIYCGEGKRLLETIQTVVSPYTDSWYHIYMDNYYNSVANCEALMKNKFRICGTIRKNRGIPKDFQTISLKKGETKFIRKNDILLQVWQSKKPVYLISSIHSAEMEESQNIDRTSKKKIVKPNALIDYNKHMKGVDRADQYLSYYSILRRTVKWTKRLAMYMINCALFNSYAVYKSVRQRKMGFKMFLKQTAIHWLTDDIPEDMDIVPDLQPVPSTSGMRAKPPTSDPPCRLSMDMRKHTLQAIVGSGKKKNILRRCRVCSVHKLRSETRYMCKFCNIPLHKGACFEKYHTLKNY
Assay: cell_activity
Conditions: HEK293, GFP+ cells day 21 relative to day 2; indirect evidence of end recognition

Substance: Myotis lucifugus donor ends (left/right)
- activity (% integration efficiency): 3.5
